Source: patent US20080206140A1

Biological target: Ab126 antibody
Test: direct competition ELISA: 0.1 µg recombinant PCNA on plate, peptide UMPB6 (0.024-2400 ng/well) mixed with Ab126, anti-rabbit IgG-AP, OD 405 nm

LGIPEQEY [antigenic peptide UMPB6 (equivalent to PCNA amino acids 126-133)]
IC50: 0.1 µg/mL
